# Legend:
# PDK1[Thr226Trp] = target: T1, PDK1[Thr226Trp] (Homo sapiens, UniProt O15530, T226W); assay: Surface plasmon resonance (BiaCore) on biotin-P-HM-S6K chip, Thr226Trp mutant; assay type: binding; conditions: protein pre-incubated with PIFtide
# T1 construct: The catalytic domain (CD) of PDK1 50-359 and its mutants Phe224Trp and Thr226Trp were expressed in insect cells and purified; made in house; host or cells: insect cells
# T1 sequence (O15530 50-359 T226W): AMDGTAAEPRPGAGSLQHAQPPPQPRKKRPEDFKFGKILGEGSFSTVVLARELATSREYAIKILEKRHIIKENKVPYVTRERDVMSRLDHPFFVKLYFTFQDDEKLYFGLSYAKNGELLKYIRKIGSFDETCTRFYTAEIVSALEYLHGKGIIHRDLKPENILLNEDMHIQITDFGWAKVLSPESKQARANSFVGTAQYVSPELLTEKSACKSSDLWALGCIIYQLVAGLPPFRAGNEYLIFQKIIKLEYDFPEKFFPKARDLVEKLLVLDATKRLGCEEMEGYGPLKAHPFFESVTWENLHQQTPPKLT
# Procedure: Surface Plasmon resonance (BiaCore) and alpha-screen interaction and displacement assays: Binding of GST-PDK1 to a P-HM-polypeptide derived from S6K1 shown in FIG. 6 was analysed by surface plasmon resonance on a BiaCore 3000 system using a streptavidin-coated Sensor chip (SA) and biotin-P-HM-polypeptide, as previously described (Biondi, R. M. et al., Embo. J. 20:4380-4390 (2001). The interaction of His-PDK1 with biotin-PIFtide and the displacement by compounds shown in FIG. 3 was performed using the alpha-screen Ni-Chelate kit (Perkin Elmer) on an Envision 2104 multilabel system (Perkin Elmer).
# BiaCore analysis was performed as described previously (Biondi, R. M. et al., Embo. J. 19:979-988 (2000)). […] Since both mutants were performed on the same construct of PDK1, their mass should be very similar and therefore should also produce 600RU when all biotin-(P)HM-S6K polypeptides on the same chip are bound to the mutant PDK1 proteins. Unfortunately, when mutant PDK1 Phe224Trp and PDK1 Thr226Trp were analysed, the injection of the mutants at concentrations higher than 1.3 μM prompted unspecific effects, therefore making difficult the evaluation. […]
# [1] = target: T2, PDK1 50-359 [Y288G;Q292A] (Homo sapiens, UniProt O15530, Q292A/Y288G); assay: Amide 1H/2H exchange and mass spectrometry
# T2 sequence (O15530 with tags, fused parts or gaps Y288G/Q292A): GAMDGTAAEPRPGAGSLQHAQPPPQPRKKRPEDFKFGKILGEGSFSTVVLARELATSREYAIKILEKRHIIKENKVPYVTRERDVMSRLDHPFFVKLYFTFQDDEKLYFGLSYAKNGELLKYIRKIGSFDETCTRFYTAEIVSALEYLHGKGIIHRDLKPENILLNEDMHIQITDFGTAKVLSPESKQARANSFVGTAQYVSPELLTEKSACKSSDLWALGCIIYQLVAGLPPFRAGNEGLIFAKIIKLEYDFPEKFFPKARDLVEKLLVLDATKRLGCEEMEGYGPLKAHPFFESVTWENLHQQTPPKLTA
# Procedure: For local exchange analysis, the labeled proteins were digested with pepsin and the resulting polypeptides analyzed by tandem mass-spectrometry (LC-MS/MS) for their incorporation of deuterium atoms. The graphics represent the number of deuterium atoms incorporated into each polypeptide upon the stated incubation time in deuterated water. […] Over time, amide hydrogen atoms exchanged for deuteriums and the molecular weight of the protein increased. We repeated the ^1H/^2H exchange experiments at four different incubation times: 1, 5, 15 and 45 minutes. […] In the presence of peptide or small compounds, protein and ligand solution were pre-incubated on ice for 50 min before the mixture was diluted into labeling buffer. After the exchange reaction, samples were loaded on a pepsin column for one minute for digestion into peptides and samples quenched at each time point. They were then subjected to liquid chromatography for separation and analyzed by tandem mass-spectrometry (LC-MS/MS) for their incorporation of deuterium atoms. The entire plumbing system was immersed in an ice bath. 61 polypeptides were identified with overlapping regions, covering 80% of PDK1 sequence. As it is not possible to predict the cleavage sites of pepsin in the PDK1 sequence, it was necessary to identify the peptides generated by pepsin digestion for local-exchange analysis.
sequence,measurement,setting,value
REPRILSEEEQEMFRDFDYIADWC [PIFtide],displacement by PIFtide of PDK1[Thr226Trp] binding to the chip,PDK1[Thr226Trp],displaced
same,"global exchange protection, 2H less incorporated/PDK1 molecule","[1]; after 45 minutes, PIFtide 0.625 mM, PS48 500 μM, PS08 250 μM",20 ^2H
same,"2H less incorporated (protection), peptide 122-134 (α-C-helix)",[1]; first time point (1 min),five

# Reference: patent US20120003668A1, “HIGH RESOLUTION COMPLEX STRUCTURE AND ALLOSTERIC EFFECTS OF LOW MOLECULAR WEIGHT ACTIVATORS ON THE PROTEIN KINASE PDK1” (UNIVERSITAET DES SAARLANDES, priority 2008, published 2012)
